# Results published in the supplement of paper PMC10567573.
# ± gives the standard deviation.
# Assay: protein stability index of a GFP-peptide fusion (GPS, HEK-293T) (PSI 1-6); higher = more stable
# Conditions: c terminus: a fixed tail appended
# 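Also: 24-mer peptide tiles fused after GFP, lentivirally expressed, FACS-sorted into six equal bins by GFP/DsRed ratio, decoded by Illumina sequencing, PSI is the read-weighted mean bin number.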
Sequence,protein stability index (treatment: DMSO),"protein stability index (treatment: MLN4924 1 uM, 8 h)"
GHSFCRPCLCLSWEEAQSPANCPA [TRIM43],3.47 ± 0.34,3.66 ± 0.29
VLYTDKTYAMGHLIQRKKVHVFGD [TNFSF13B],2.28 ± 0.14,2.51 ± 0.41
PNGSAAEPPTEAASREENQAGPEA [PALM],5.56 ± 0.35,5.4 ± 0.25
FWPAKVMQKEDNQVDVRFFGHHHQ [ZMYND11],2.71 ± 0.52,2.47 ± 0.18
TEFKELDGLREALANLRGLSEEER [CCDC89],5.05 ± 0.28,4.85 ± 0.28
MMTLLMKKDTLTEEETQFYISETV [STK38L],3.16 ± 0.23,3.3 ± 0.31
DVALVLTVLLEEETLEASVGPRET [TOR1AIP2],2.49 ± 0.51,2.27 ± 0.31
EPTEVEEVVPALEPTETLLSEKEI [BCL2L13],5.5 ± 0.35,5.71 ± 0.12
AEMAEDYPRYPDIHDLDLTLLNPR [CLCN6],4.05 ± 0.28,4.21 ± 0.25
IKLREYEAALNSKDAALATALGDK [LMNB1],4.076 ± 0.039,4.38 ± 0.15
LVRTLYKVQNECPGITRVYSIGRS [CPN1],2.27 ± 0.55,2.11 ± 0.14
NHFDMHRVGKWHQDFPVKKRKKLS [ZNF75A],3.56 ± 0.24,3.92 ± 0.076
EALGLEAEGAVPETQTLTGWSKGF [RHOBTB1],3.79 ± 0.098,4.05 ± 0.27
AARSPQGLGASTAEISARTMQSMF [PTPRD],3.38 ± 0.26,3.29 ± 0.34
YSFYLFHPLAYGMVGPLAQDPQSP [POMT2],2.45 ± 0.7,2.67 ± 0.43
LDKQAKLSRAYDGTTYLPGIVGLN [USP39],3.15 ± 0.39,3.1 ± 0.2
VYMTEPIDEYCVQQLKEFDGKSLV [HSP90AB1],3.06 ± 0.15,3.29 ± 0.25
SYSSCGDFHYCDREHVCRKDQRNP [RBMY1A1],4.06 ± 0.41,4.09 ± 0.1
HVSDEDNNADLCLTDDKQVLNTQG [DLC1],5.34 ± 0.23,5.46 ± 0.13
SAETSGGLLICLPREQAARFCSEI [SEPHS2],2.31 ± 0.27,2.18 ± 0.26
PSHYDVQDRFRIELSEEGAEGRVV [MOSPD3],4.63 ± 0.11,4.79 ± 0.33
DALLGIDDLETMPDDLLTTLDDTC [ATF4],5.17 ± 0.16,5.05 ± 0.34

Sequence,protein stability index (treatment: DMSO),"protein stability index (treatment: MLN4924 1 uM, 8 h)"
YQEASNLEQFVTRFLLKETLNQLQ [NECAB1],2.66 ± 0.81,2.44 ± 0.69
AASISDGDCDAREEKQRELARKGS [FAM219A],5.54 ± 0.2,5.52 ± 0.2
SLENTLTESEAHYSSQLSQVQSLI [KRT34],3.32 ± 0.093,3.42 ± 0.31
GVGGAERLVLDAALALQARGCSVK [ALG2],3.22 ± 0.24,3.28 ± 0.48
VAPPEDKESESEAKVDGETASDSE [CDS2],5.55 ± 0.23,5.61 ± 0.18
KCYLNGVKVPGIVRLRTLLCKVLG [CLCN6],2.93 ± 0.43,2.77 ± 0.36
SVLMGHGVCMGLVAAACACGFTVA [OR10K2],2.9 ± 0.45,3.08 ± 0.41
PSVMDPGAFETVLASAYTGRLSMA [ZBTB22],2.3 ± 0.38,2.3 ± 0.17
GPPAPVGPPHARISQHGDPLLSNT [EMID1],4.37 ± 0.24,4.55 ± 0.72
SGGGGGGGGGGGGGKSGGIVISPF [CCDC6],3.53 ± 0.41,3.37 ± 0.23
PVRRIDGLTDVSQIITVTVQTGLD [IQUB],2.47 ± 0.45,2.45 ± 0.52
LGGEDGEKELISMECYDIYSKTWT [GAN],3.31 ± 0.45,3.19 ± 0.24
PAPTTTTATREEASTSLPTKPTQG [CLPTM1],5.54 ± 0.19,5.57 ± 0.14
NCGKSFSRLTALTLHQRTHTEERP [ZNF449],3.38 ± 0.27,3.36 ± 0.26
RYAVVLNATWLVNSAAHLFGYRPY [SCD],2.9 ± 0.65,3.05 ± 0.47
YLLTVMAAAAKAFKHPSIRNPVSL [ADAMTS4],2.56 ± 0.62,2.15 ± 0.32
NTEDWRPRPGTGQSRSFRILAHLT [PDLIM7],2.81 ± 0.33,2.9 ± 0.22
RLICDFPFDGLLEERALLLGRMGK [VPS39],2.28 ± 0.25,2.28 ± 0.12
YTFHARFGEVRPYFYLGGARGAGP [TRIM35],2.27 ± 0.083,2.28 ± 0.4
RPMSEPGAGAGSSLLDVAEPGGPG [SMAD6],5.11 ± 0.3,5.39 ± 0.16
ISCVERGWSTPPKCRSTISAEKCG [CFHR2],2.88 ± 0.14,3.09 ± 0.32
RNTSWGVVQEPPGRASRFLQSISW [TLE6],2.47 ± 0.28,2.46 ± 0.3

Sequence,protein stability index (treatment: DMSO),"protein stability index (treatment: MLN4924 1 uM, 8 h)"
MEAGERIDASQLPHRVLETRGHAI [SMIM2],4.19 ± 0.44,4.02 ± 0.6
RLMSFRPICSANHKESKMTIFEKE [CRYBA1],3.14 ± 0.16,3.5 ± 0.21
KKIYAMGGGSYGKLFESVECYDPR [GAN],2.94 ± 0.24,2.99 ± 0.17
LLDCFGIPVLMALSWFILHARYRV [SLC35F2],3.07 ± 0.33,3.64 ± 0.27
AWFFSKTEELNKEVASNTEMIQTS [KRT15],3.83 ± 0.18,3.84 ± 0.081
SNSEKAKNIFRIRFHDPSPAQSHT [NET1],3.13 ± 0.2,3.06 ± 0.37
HMLNQVESKVKDILSKVQKNHVGK [FAM98B],2.55 ± 0.51,2.36 ± 0.32
ANETLAEMEEELRYAPLSFRNPMM [VTI1B],2.42 ± 0.63,3.01 ± 0.56
RQEYQKALQEYSSISEKLSSTNFA [C8orf76],3.48 ± 0.26,3.69 ± 0.18
TQKLSKIETLRLAKNYIWALSEIL [NEUROD6],2.61 ± 0.49,2.67 ± 0.47
IQFATPNDFCSFYNILKTCRGHTL [CARM1],2.47 ± 0.41,2.24 ± 0.22
IRPDPRSRVTDPVGDIVSFMHSFE [FAF2],3.06 ± 0.42,3.09 ± 0.33
SVKIPVRNHGILMETHKELKPLLS [LYSMD4],2.86 ± 0.13,3.17 ± 0.36
SSIGRLFGKKEKGRLIQLSRDGAT [PPFIA4],3.19 ± 0.48,3.38 ± 0.54
HPMYRRLVHSAVDVPTIQEKVNEG [ZMYND11],4.11 ± 0.36,4.3 ± 0.17
PVVSAVWGHCEIRMRYLNGLDPEP [SPSB1],2.14 ± 0.35,1.98 ± 0.33
RLEELTNRLASLQQENKVLKIELE [CCDC6],3.65 ± 0.23,3.78 ± 0.38
CPIIRIPNRFLRGHRPPPARSGHR [KLHDC10],2.68 ± 0.69,3.32 ± 0.85
CQQEQLFQTRQEMTSMSAELKMRA [LRRC45],3.03 ± 0.42,3.1 ± 0.21
RMQALLIRERILGPSHPDTSYYIR [FEM1C],2.2 ± 0.17,2.18 ± 0.44
KLGALLSRCRKLVEYFQQSAVAMY [ZBED1],3.12 ± 0.31,3.1 ± 0.21
